Measurements reported in the nanobody polyreactivity screen of Harvey et al. (2022).

Experiment: yeast display, Sf9 membrane polyspecificity reagent, FACS + sequencing; frameworks hold sequencing errors
In short: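 In a synthetic yeast display library (Saccharomyces cerevisiae BJ5465), nanobody expression was induced with galactose for 36–48 hours. FACS gates were set low and high (top ~1%) using anti-HA fluorescence for expression and streptavidin fluorescence for binding of the Sf9 membrane reagent. Each polyreactivity label is drawn from the gate of origin.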

QVHLVESGVGLGQAGGSLRLSCAASGSIFYSNAMGWYRPAPGKERELVATITWSGGRTYYADSVKGRFTISRDYAKNTFYLQMHSLKPEDTAVYYCAAVSIYWGHGTQVTVSS
polyreactivity (PSR sort gate): low polyreactivity

QVQLVESGGGLVQAGGSLRLSCAASGSTFHYYAMGWYRQAPGKERELVAAITRGGNTYYADSVKGRFTISRGNAKNTVYLQMNSLKPEDTAVYYCAKDNLFEAYRYDYWGQGTQVTVSS
polyreactivity (PSR sort gate): low polyreactivity

QVQLVESGGGLVQAGGSLRLSCAASGSTFLWNAMGWYRQAPGKERELVAAISYSGGSTYYADSVKGRFTISRDNAKNTVYLQMNSLKPEDTAVYYCAKEWFYDPYPPGYDYWGQGTQVTVSS
polyreactivity (PSR sort gate): low polyreactivity

QVQLVESGGGLVQAGGSLRLSCAASGSILGTYAMGWYRPAPGKESELVAAISSSGRTSYADTVKGRFTNSRDNAKNTVYLQMKSLKPEDTAVYYCNASNYIVLINDPDAAPWVYDYWGPGTQVTVSS
polyreactivity (PSR sort gate): low polyreactivity

QVQLVESGGGLVQAGGSLRLSCAASGRTFDLNVMGWSRQAPGKERELVAASSFSGGSTYYADSVKGRFTLSRDNAKNTVYLQMNSLKPEDTAVYYCAADGYVRPPEMDYWGQGTQVTVSS
polyreactivity (PSR sort gate): high polyreactivity

QVQLVESGGGLVQAGGSLRLSCAASGLTFSVYAMGWYRQAPGKERELVAAISYSGDSTYADSVKGRFTISRDNAKNTVYLQMNSLKPEDTAVYYCNARWVRQGYRRWYDYWGQGTQVTVSS
polyreactivity (PSR sort gate): low polyreactivity

QVQLVESGGGLVQAGGSLRLSCAASGRIFKYHAMGWYRQAPGKERELVAAITWGGGGTYYADSVKGRFTISRDNAKNTVYLQMNSLIPEDTAVYYCNTERWGTGKLRYNYWGPGTQVTVSS
polyreactivity (PSR sort gate): low polyreactivity

QVQLVESGGGLVQAGGSLRLSCAASGIIFYRYAMGWYRQAPGKERELVAVISRSGCSTYYADSVKGRFTISRDNAKNTVYLQMNSLKPEDTAVYYSAAGRRYDGTRHDYWGQGTQVTVSS
polyreactivity (PSR sort gate): high polyreactivity

QVQLVESGGGLVQAGGSLRLSCAASGSIFGYNAMGWYRQAPGKERELVAAISRSGGRTYYADSVKGRFTISRDNAKNTVYLQMNSLKPEDTAVYDCAAPVWRYYRGKTFDYWGQGTQVTVSS
polyreactivity (PSR sort gate): high polyreactivity

QVQLVESGGGLVQAGGSLRLSCAASGRIFRHNPMGWYRQAPGKERELVAAITSRGGTYYADSVKGRFTISRDNAKNTVYFQMNSVKPEDTAVYYCAADRPIYPYPGKGFRYDYWGQGTQVTVSS
polyreactivity (PSR sort gate): low polyreactivity

QVQLVESGGGLVQAGGSLRLSCAASGSTLPPNAMGWSRQAPGKERELVAAISYSGDSTHYADSVKGRFTISRDNAKNTVYLQMNSLKPEDTAVYYCYASSPGAVPVYDYDYWGQGTQVTVSS
polyreactivity (PSR sort gate): low polyreactivity

QVQLVESGGGLVQAGGSLRLSCAASGSIFTAYTMGWYRQAPGKERELVAAITERGGSTYYADSVKGRFTISRDNAKNTVYLQMNSMKPEDTAVYYCAASTLKDIYLWFRVDYWGQGTQVTVSS
polyreactivity (PSR sort gate): low polyreactivity

QVQLVESGGGLVQAGGSLRLSCAASGSTFRYYAMGWYRQAPGKERELVAAIDWSGGTTYYADSVKGRFTISRDNAKNTFYLQMNSLKPEDTAVYYCAADSSRRIGEDYWGHGTQVTVSS
polyreactivity (PSR sort gate): low polyreactivity

QVHLVESGGGLVQAGGSLRLSCASSGGTFPPNTMGWYRQAPGKEREFVAAITWRGSSTYYADSVKGRFTISRDNAKITFFLQMNSLKPEDSAVDYCAARRAYERMGFWGQGTQVTVSS
polyreactivity (PSR sort gate): high polyreactivity

QVQLQESGGVQAGGSLRLSCAESGYISRSDVMGWYRQAPGKERELVATINNGTITYYADSVKGRFTISRDNAKNTVYLQMNSLKPEDTAVHYCAVVQSDTDSLYYWGQGTQVTVSS
polyreactivity (PSR sort gate): low polyreactivity

QVQLVESGVGLVQAGGSLRLSCAASGLIFGRNVMGWYRQAPGKERVLVAAISWSGGRTYYADSVKGRFTISRDNAKNTGYLQMNRLKPEDTAVDYCATDRSTRTYRSPYDYWGQGTQVTVSS
polyreactivity (PSR sort gate): high polyreactivity

QVQLVESGRGLVQAGGSLRLSCAASGFTFVWYAMGWYIPAPGKERELVAAISRRGTRTYYADSVKGRFTISRDNAKNTVYLQMNSLKPEDTAVYYCASESILGYDYWGQSTQVTVSS
polyreactivity (PSR sort gate): high polyreactivity

QVQLVESGGGLVQAGGSLRLSCAASGRTFIVNTMGWYRQAPGKERELVAAITARGGRTYYADSVKGRFTISRDNAKNTVYLQMNSLKPEDTAVYYCNARTPPREAERYYWGQGTQVTVSS
polyreactivity (PSR sort gate): low polyreactivity

QVQLVESGGGLVQAGGSLRLSCAASGGTFQAYAMGWYSQAPGKDREFDAAITAGGGSTSYADSVKGRFTISRDNAKNTVDLQLNRLKPEDSAAYYCAVDGGFPVTDYDYWGQGTQVTVST
polyreactivity (PSR sort gate): low polyreactivity

QVQLVDSRGGLDQAGGSHRLSCAASGSTFSTNVMGWYRQAPGKERELVAAISISGTTTYYADSVKGRFTISRDNAKNTVYLQMNSLKPEDTAVYYCAAENYVAWTWHDYWGQGTQVTVSS
polyreactivity (PSR sort gate): high polyreactivity

QVQLVESGGGIFQEGGSLRLSCAASGLIFRSYDMGWYRQAPGKERELVAAITDLFWSTYYADSVKGRFTISRDNAKNTVYLQMYSLKPEDTAVYYCARDDWVYTNVEMDYWGQVTQVTVSS
polyreactivity (PSR sort gate): high polyreactivity

QVQLVESGGGLVQAGGSLRLSCAASGSIFRRYAMGWYRQAPGKERELVATITSTDSTNYADSVKGRFTISRDNAKNTVYLQMNSLKPEDTAVYYCAKRPYHYRRNSEYYYWGQGTQVTVSS
polyreactivity (PSR sort gate): low polyreactivity

QVQLVESGGGLDQAGGSLRLSCAASGRTFLVYAMGWYRQAPGKERELVAAISRSGGSTYYADSVMRRFTISRDNAKNNVYLQMNSLIPEDTAVYYCAAKKTGRYYWGQGTEVTVSS
polyreactivity (PSR sort gate): high polyreactivity

QVQLVESGGGLVQAGGSLRLSCADSGSIFSYYAMGWYRQEPGKARELVASISRTGVSTHYADSVKGRFTISRDNAKNTVYLQMNSLKPEDNAVYYCNAKYLTWSYRYYYWGQGTQVTVSS
polyreactivity (PSR sort gate): high polyreactivity

QVQLVESGGGLVQAGGSLRLSCAASGRTFRWTAMGWYRQAPGKERELVAAISYSGGSTYYADSVKGRFTISRDNAKNTVYLQMNSLKPEDTAVYYCAKAYSWYPIIRGLDSWGQGTQVTVSS
polyreactivity (PSR sort gate): high polyreactivity

QVHLVESGGGLVQAGGSLRLSCAASGITFFWYTMGWYRQAPGKDRELVAAISESGGDTYYADSVKGRFTISRDNAKNTVYLQMKILKPEDTAVYYCAADDSYYGLDYWGQGTQVTVSS
polyreactivity (PSR sort gate): low polyreactivity

QVQLVESGGGLVQAGGSLRLSCAASGSIFVYYAMGWYRQAPGKERELVAAIDVSDGGTYYAESVKGRFTISRDNAKNTVYLQMNSLKPEVTAVYYCAADQGIDVPYIGYDYWGQGTQVTVSS
polyreactivity (PSR sort gate): high polyreactivity

QVQLVESGGGLVQAGGSLRLSCAASGSTFFTNVMGWYRQAPGKERELVAVIRWRGSDTYYADSVKGRFTISRDNAKNTVYLQMNSLKPEDTAVYYSNAKESFYPTTGEQGYSYDYWGQGTQVTVSS
polyreactivity (PSR sort gate): low polyreactivity

QVQLVESGGGLVQAGGSLRLSCAASGSIFIPYAMGWYRQAPGKETELVAAISSSGSSYYADSVKGRFTISRDNAKNTVYLQMNSLKPEDTAVYYCAAERHYSYSSYDYWGQGTQVTVSS
polyreactivity (PSR sort gate): low polyreactivity

QVQLVESGGGLVQAGGSLRLSCAPSGSIFVKNAMGWYRQAPGKERELVAFITIRTATTYYADSVKGRFTISRDNAKNTVYLQMNSLKPEDTAVYYCAAAKRQRGYLQREGNYWGQGTQVTVSS
polyreactivity (PSR sort gate): low polyreactivity

QVQLVQSGGGLVQAGGSLRLSCAASGLTFYYNVMGWYRQATGKERELVAAITSGGRTYYGDSVKGRFTISRDNAKNTVYLQMNSLKPEDTAVYYCARPYSRAYDYWGQGTEVTVSS
polyreactivity (PSR sort gate): high polyreactivity

QVQLVESGGGLVQAGGSLRLSCAASGIIFKYNAMGWSRQAPGKERELVAAITSGGSTYYADSVKGRFTISRDNAKNTVYLQRNSLKPEDTAVYYCAARYTYVKNFFRRLTAYYYWGQGTQVTVSS
polyreactivity (PSR sort gate): high polyreactivity

QVQLVESGGGLVQAGGSLRLSCAASGSTFSDYAMGWYRQAPGKERELVAAISGGGTTDYADSVKGRFTISRDNAKNTVYLQMNSLKPEDTAVYYCNKPVEGSFLPYSYLRFDYWGQGTQVTVSS
polyreactivity (PSR sort gate): low polyreactivity

QVQIVESGGGLVQAGGSLRLSCAASGSTFSYNAMGWYRQAPGKERELVATISNTDSTNYADSVKGRFTISRDNAKNTLYLQMNSLKPEDTSVYSCAAVVSTVDGMEYWGQGTQVNVSS
polyreactivity (PSR sort gate): low polyreactivity

QVQLVESGGGLVQAGGSLRLSCAASGRIFYQNVMGWYRQAPGKERELVAAITRRDVTTYADSVKGRFTISRDNAKNTVYLQMNSLKPEDTAVYYCNAVYYNWIGFDYWGQGTQVTVSS
polyreactivity (PSR sort gate): low polyreactivity

QVQLVESGGGLVQAGGSLRLSCDASGSTFVTYAMGWYRPAPGKERELVAAINTGGRTKYADSVKGRFTISRDNATNTVYLQMNSLKPEDTAVYYCAARLSTTGVAYGYWGQGTQVTVSS
polyreactivity (PSR sort gate): high polyreactivity

QVQLVESGGGLVQAGGSLRLSCAASGSTFPAYAMGWYRQAPGKERELVAGISSGGRTYYADSVKGRFTISRDNAKNTVYLQMNSLKPEDTAVYYCAAFRFYWQRPDRYYYWGQGTQVTVSS
polyreactivity (PSR sort gate): high polyreactivity

QVKLVESGGGLVQAGASLRLSCAASGIISYGNAMGRYRQAPGKERELVASISGISGSTYYADSVKGRFTISRDNAKNTVYLQMNSLKPEDTAVYYCNARYPTYRASYHGDYWGQGTQVTVSS
polyreactivity (PSR sort gate): low polyreactivity

QVQLVESGGGLVQAGGSLRLSCAASGYAMGWYRQAPGKERELVAAISWSGDITYADSVKGRFTISRDNAKNTVYLQMNSLKPEDTAVYYCNADRYTGRDGEQSLDYWGQGTQVTVSS
polyreactivity (PSR sort gate): low polyreactivity

QVQLVESGGGLVQAGGSLRLSCAASGSIFFGNAMGWYRQAPGKERELVAAISTTGGSTYYADSVKGRFTISRDNEKNTVYLQMNSLKPEDTAVYYCNADRATWWEQWWYDYWGHGTQVTVSS
polyreactivity (PSR sort gate): low polyreactivity

QVQLLESGGGLVQAGGSLRLSCAASGRIFRRYAMGWYRQAPGKEREFVAAITKSGGSTYYADSVKGRFTISRDNAKNTVYLQMNSLKPEDTAVYYCATYPQYYFRYDYWGQGTQVTVSS
polyreactivity (PSR sort gate): high polyreactivity

QVQLVESGGGLVQAGGSLRLSCAASGSIVVDYAMGWYRQAPGKERELVAAITSTGSTTYADSVKGRFTISRDNAKNTVYLQMNSLKPEDTAVYYCAASFRWYGTVRYPYEMYYWGQGTQVTVSS
polyreactivity (PSR sort gate): low polyreactivity

QVQLVESGGGLVQAGGSLRLSCAASGTTLYWNAMGWYRQAPGKERELVAAISRSGGSTYYADSVKGRFTISRDNAKNTVYLQMNSLKPEDTAVYYCAARRYVPHTEYYYWGQGTQVTVSS
polyreactivity (PSR sort gate): low polyreactivity
